This note sets out measurements from paper PMC12573921, “‘Mix-it-up’: accessible time-resolved cryo-EM on the millisecond timescale” (IUCrJ, 2025).

Data set [1] deals with the molecule itself. The data set can be described thus: cryo-EM structure.
Data set [2] deals with the molecule itself. The data set can be described thus: cryo-EM structure; 8.6 µM GroEL + 17.1 µM GroES on the grid, 83.3 mM ATP with gold fiducials sprayed with MIU, 300 ms.

B1: Cowpea chlorotic mottle virus (CCMV) coat protein (natural protein)
chain: MSTVGTGKLTRAQRRAAARKNKRNTRVVQPVIVEPIASGQGKAIKAWTGYSVSKWTASCAAAEAKVTSAITISLPNELSSERNKQLKVGRVLLWLGLLPSVSGTVKSCVTETQTTAAASFQVALAVADNSKDVVAAMYPEAFKGITLEQLTADLTIYLYSSAALTEGDVIVHLEVEHVRPTFDDSFTPVY
notes: also called CCMV capsid; copies: 180
For B1, the binding result in data set [1] is recorded as “binds”.

B2: E. coli GroES (natural protein, UniProt P0A6F9 1-97, looked up)
chain: MNIRPLHDRVIVKRKEVETKSAGGIVLTGSAAAKSTRGEVLAVGNGRILENGEVKPLDVKVGDIVIFNDGYGVKSEKIDNEEVLIMSESDILAIVEA
notes: GroES co-chaperonin of E. coli; purified as in Godek et al., 2024; source: T7 Express E. coli, Trc-promoted GroES/GroEL plasmid, purified (ion exchange, FFSP column at pH 4.6, Superdex 75); gift from the Steven Johnson laboratory
In the case of B2, the “stoichiometry N” value in data set [2] is 7.

The term stoichiometry N denotes a count of units in the complex or per binding partner.
